Source: patent US8753698B2, “Anti-hypertensive functional food products” (Globus Egg Sciences B.V., priority 2004, dated 2014)

Assays:
SHR rats = assay: Acute oral treatment of anaesthetized SHR, blood pressure; format: in vivo, rat; settings: single oral dose 1000 mg/kg, percentage change from baseline
Description: (§1) This study was performed to establish the effects of acute oral treatment of anaesthetized SHR with lysozym/alcalase on blood pressure and plasma ACE activity.
Rats: SHR rats (382-440 g) were purchased via Harlan, Horst, The Netherlands from Harlan, Oxon, United Kingdom.
(§2) Surgery: At the day of the experiment, rats were anaesthetized and the carotid artery was cannulated for measurement of blood pressure. In addition to that, the jugular vein was cannulated to allow blood sampling for measurement of plasma ACE activity.
(§3) Protocol: At timepoint t=0, rats were administered the study drugs by means of oral gavage using a gastric tube. Blood samples were drawn immediately prior to gavage at t=0, as well as at t=0.5, t=1, t=2, t=3, t=4, t=5 and t=6 hr thereafter. Blood pressure was recorded (mean value every 10 min) throughout the 6 hr study period;
(§4) Study drugs: Rats were randomly administered either lysozym/alcalase or lysozym (both 1000 mg/kg; dissolved in 1 ml drinking water), or water only.

plasma ACE activity = biological target: T1, plasma ACE activity (Rattus norvegicus, UniProt P47820); assay: Acute oral treatment of anaesthetized SHR, plasma ACE activity; format: in vivo; settings: single oral dose 1000 mg/kg
T1 construct: effects of acute oral treatment of anaesthetized SHR with lysozym/alcalase on blood pressure and plasma ACE activity; from tissue; host or cells: blood plasma of SHR rats
T1 sequence (P47820 36-1313): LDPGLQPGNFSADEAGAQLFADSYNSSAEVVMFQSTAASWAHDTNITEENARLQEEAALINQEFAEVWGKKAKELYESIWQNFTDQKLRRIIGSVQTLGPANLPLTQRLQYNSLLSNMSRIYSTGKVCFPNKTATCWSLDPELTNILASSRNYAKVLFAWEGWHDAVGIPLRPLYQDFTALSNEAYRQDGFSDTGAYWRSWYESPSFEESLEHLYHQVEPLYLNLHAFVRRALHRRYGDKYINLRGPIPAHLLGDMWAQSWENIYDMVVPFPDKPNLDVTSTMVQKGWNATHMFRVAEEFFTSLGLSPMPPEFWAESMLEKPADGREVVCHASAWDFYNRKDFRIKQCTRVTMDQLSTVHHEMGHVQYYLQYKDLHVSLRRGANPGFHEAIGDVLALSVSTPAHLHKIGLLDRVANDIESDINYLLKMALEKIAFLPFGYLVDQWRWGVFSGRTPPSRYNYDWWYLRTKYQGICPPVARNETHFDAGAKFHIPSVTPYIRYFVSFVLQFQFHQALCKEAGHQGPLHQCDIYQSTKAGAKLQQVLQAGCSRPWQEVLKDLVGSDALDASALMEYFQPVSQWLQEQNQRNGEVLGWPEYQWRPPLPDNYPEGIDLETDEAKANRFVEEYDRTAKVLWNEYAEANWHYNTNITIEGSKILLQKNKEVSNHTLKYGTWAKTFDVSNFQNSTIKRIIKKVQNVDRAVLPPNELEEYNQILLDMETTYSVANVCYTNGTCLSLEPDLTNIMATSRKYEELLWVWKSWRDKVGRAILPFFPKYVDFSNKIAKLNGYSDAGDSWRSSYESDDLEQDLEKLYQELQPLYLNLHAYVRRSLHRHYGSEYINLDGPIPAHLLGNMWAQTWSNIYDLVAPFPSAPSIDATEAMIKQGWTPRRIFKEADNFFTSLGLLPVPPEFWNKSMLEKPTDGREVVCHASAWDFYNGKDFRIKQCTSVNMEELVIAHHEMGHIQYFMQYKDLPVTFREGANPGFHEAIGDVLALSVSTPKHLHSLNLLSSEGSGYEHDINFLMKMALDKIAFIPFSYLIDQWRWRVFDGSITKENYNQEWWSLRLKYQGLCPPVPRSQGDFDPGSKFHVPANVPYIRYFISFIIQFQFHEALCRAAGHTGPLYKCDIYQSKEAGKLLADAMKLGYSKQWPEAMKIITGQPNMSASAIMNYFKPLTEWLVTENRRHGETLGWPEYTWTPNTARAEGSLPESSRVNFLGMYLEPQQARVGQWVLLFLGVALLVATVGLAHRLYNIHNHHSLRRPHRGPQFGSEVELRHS
Description: as §1, §2, §3, §4

[1] = biological target: Angiotensin-I Converting Enzyme (ACE) (Homo sapiens, UniProt P12821); assay: Determination of ACE inhibitory activity of hydrolysates in a microtiter plate (Hip-His-Leu substrate); format: biochemical; settings: no digestion simulation, in %
Description: ACE inhibitory activity can be measured in vitro using a spectrophotometry based assay. The assay is based on the liberation of hippuric acid from Hip-His-Leu substrate catalyzed by ACE.
Calculation of Ace Inhibition:
[formula] 2.4 Further (Optimized) Hydrolysis of Ovomucin with Alcalase Protocol for the DH Determination by TNBS Method Solutions: • 0.21 M Sodium phosphate buffer pH8.2 • 0.21 M NaH2PO4.H2O (25 ml solution) • 0.21 M Na2HPO4.2H2O (500 ml solution) • mix solutions to pH 8.2 • 0.05% TNBS • Dilute TNBS stock (5% solution) to 0.05% in MQ cover reagent tube with aluminium foil and store in dark place • 1% SDS solution • Leucine standard (stock 3 mM Leucine) • Dissolve Leucine in 1% SDS solution. Dilute the stock solution 20×, 10×, 4× en 2× with 1% SDS for analysis • Blank • Dilute non-hydrolysed sample in 1% SDS to a protein concentration of 0.5 mg/ml • Samples • Dilute hydrolysed protein in 1% SDS to a concentration of 0.5 mg/ml in duplo Analysis: • Pipet 15 μl sample (Leucine standard or sample) in microwell. Measure each dilution in twofold in plate (Costar, non-binding plate) • Add 45 μl 0.21 M sodium phosphate buffer pH 8.2 • Add 45 μl 0.05% TNBS. Cover plate with aluminium foil. Incubate plate for 60 minutes in a 50° C. stove. • After incubation add 90 μl 0.1 N HCl • Measure absorption at 340 nm (microplate reader) Calculation of degree of hydrolysis (DH): • Make calibration line of Leucine standard. This calibration line is used to convert absorption values of samples to NH2-equivalents.

Angiotensin-I Converting Enzyme (ACE), sequence (P12821 30-1306, species assumed): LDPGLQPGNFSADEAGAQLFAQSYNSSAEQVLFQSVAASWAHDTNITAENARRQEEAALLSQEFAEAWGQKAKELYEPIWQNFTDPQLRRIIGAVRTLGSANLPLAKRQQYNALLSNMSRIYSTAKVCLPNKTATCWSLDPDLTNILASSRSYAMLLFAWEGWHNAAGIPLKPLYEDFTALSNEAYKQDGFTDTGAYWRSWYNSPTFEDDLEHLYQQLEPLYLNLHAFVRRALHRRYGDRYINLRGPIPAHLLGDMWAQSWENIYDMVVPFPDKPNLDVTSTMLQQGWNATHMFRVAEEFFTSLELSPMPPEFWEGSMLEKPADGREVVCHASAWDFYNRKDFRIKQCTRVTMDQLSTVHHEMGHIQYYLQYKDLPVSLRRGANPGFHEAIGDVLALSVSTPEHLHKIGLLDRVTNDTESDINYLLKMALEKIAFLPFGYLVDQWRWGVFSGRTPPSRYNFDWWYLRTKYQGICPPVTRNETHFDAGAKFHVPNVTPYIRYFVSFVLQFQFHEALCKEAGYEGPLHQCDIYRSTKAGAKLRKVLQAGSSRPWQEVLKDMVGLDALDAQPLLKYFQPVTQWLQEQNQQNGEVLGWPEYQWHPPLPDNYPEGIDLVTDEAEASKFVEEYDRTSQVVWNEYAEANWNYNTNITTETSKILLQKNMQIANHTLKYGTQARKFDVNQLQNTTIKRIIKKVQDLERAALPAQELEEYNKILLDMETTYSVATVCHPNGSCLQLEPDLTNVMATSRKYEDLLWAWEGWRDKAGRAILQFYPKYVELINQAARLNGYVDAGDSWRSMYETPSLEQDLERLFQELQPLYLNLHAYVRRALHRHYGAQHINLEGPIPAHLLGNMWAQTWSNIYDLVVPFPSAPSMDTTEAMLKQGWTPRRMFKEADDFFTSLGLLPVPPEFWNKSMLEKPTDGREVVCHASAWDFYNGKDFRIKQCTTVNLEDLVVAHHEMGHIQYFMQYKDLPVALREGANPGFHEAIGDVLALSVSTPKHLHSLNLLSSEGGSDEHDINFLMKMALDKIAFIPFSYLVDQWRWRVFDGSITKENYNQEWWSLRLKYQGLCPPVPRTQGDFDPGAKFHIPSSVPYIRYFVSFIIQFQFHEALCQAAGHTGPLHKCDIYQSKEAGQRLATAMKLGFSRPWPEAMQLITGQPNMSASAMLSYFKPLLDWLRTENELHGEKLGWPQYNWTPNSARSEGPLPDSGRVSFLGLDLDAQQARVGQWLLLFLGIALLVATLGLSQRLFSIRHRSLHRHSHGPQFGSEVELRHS

Row | maximal decrease (inhibition) of plasma ACE activity from baseline (plasma ACE activity) | ACE inhibition ([1]; conc. 0.019 mg/ml) | ACE inhibition ([1]; conc. 0.056 mg/ml) | ACE inhibition ([1]; conc. 0.167 mg/ml) | ACE inhibition ([1]; conc. 0.500 mg/ml) | Substance | maximal reduction in SBP (SHR rats)
1 | approx. 10% | 0.1 | 1.3 | −4.7 | 2.6 | Lys UM: lysozyme, not pre-hydrolysed, nor in vitro digested; control in SHR studies | approx. 15%
2 | – | −0.4 | 5.2 | 2.2 | 2.1 | OM-UM: ovomucin, not pre-hydrolysed, nor in vitro digested | –
